Data taken from paper PMC10478522.

How the values were obtained:
[1] = molecular target: type IC cascade from Neisseria lactamica with crRNA (Neisseria lactamica); assay: SPR; BIAcore T200; NlaCascade/crRNA complex captured on a Ni-loaded NTA chip (711-826 RU); AcrIC9 injected in twofold dilutions from 125 nM at 30 ul/min, 120 s contact, 240 s dissociation; 25 °C; HBS-P buffer (0.01 M HEPES pH 7.4, 0.15 M NaCl, 0.005% Surfactant P20); 1:1 binding model
[2] = molecular target: type IC cascade from Neisseria lactamica (NlaCascade/crRNA complex) (Neisseria lactamica); assay: SPR; BIAcore T200, NlaCascade/crRNA complex captured on a Ni-NTA chip (711-826 RU), AcrIC9 injected in twofold dilutions from 125 nM (8 to 125 nM), HBS-P buffer (0.01 M HEPES pH 7.4, 0.15 M NaCl, 0.005% P20), 25°C, 1:1 binding model
[3] = molecular target: AcrIC9 from Rhodobacter capsulatus (Rhodobacter capsulatus); assay: SEC-MALS; purified AcrIC9 alone on Superdex 200 Increase 10/300 GL, 20 mM Tris-HCl pH 8.0, 150 mM NaCl, room temperature; dimer to monomers

B1: AcrIC9 from Rhodobacter capsulatus (natural protein)
chain: METKMTSFYKITAYNSQALYFWGTDADVDRYVDWLNRDREINVYAAEAIPEAEWAQYEGRDDVLSGEECGWDDFMSAEA
**Q.** How did the Kd [1] turn out when B1 was run?
**A.** 43.2 nM

**Q.** And the koff [1]?
**A.** 0.00404 s⁻¹

**Q.** What about the kon [1] of the same binder?
**A.** 93500 M⁻¹ s⁻¹

**Q.** What about the Kd [2] of the same binder?
**A.** 4.32 nM

**Q.** What about the stoichiometry N [3] of the same binder?
**A.** 2
